For one molecule, EC50 and IC50 results are on record in patent publication US20240376225A1 (CHILDREN S MEDICAL CENTER, published 2024).

In assay [1] the target is T1, human CD21 on Raji B cells or primary B cells (human, UniProt P20023 21-1033).
T1 construct: whole, on cells; also called cell-surface human CD21; Raji cells
T1 sequence (looked up): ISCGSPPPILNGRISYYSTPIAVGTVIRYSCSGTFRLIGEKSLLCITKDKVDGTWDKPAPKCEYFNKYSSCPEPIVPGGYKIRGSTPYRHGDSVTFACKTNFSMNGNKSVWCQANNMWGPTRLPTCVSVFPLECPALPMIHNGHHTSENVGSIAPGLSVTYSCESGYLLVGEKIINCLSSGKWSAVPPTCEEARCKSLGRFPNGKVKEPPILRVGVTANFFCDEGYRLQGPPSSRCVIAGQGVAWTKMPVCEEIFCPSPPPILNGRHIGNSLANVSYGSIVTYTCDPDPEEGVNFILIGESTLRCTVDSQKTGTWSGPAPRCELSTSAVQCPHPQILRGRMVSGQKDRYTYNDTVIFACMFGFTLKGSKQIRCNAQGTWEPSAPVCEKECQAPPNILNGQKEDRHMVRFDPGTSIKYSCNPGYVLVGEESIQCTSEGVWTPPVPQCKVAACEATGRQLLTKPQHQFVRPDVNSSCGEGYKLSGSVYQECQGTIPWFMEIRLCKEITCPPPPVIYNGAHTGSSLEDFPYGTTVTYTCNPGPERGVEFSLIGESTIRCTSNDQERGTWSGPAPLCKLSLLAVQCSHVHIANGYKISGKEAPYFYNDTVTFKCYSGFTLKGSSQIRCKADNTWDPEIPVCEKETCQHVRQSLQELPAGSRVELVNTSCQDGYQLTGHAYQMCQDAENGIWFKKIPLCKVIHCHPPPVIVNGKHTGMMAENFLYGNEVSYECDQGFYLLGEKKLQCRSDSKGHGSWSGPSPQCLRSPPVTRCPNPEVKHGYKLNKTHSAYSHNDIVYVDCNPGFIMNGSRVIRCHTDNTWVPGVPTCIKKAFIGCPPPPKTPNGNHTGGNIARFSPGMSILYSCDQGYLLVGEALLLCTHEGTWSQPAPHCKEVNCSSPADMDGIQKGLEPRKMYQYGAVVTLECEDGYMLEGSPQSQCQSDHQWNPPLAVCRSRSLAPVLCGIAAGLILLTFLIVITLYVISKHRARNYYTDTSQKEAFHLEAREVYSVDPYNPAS
Nature of the assay: Raji B cell binding, flow cytometry. On the procedure: Ab15 binding to cell-surface human and cyno CD21 was determined using human Raji B cells (ATCC, Manassas, VA) and CHO cells over expressing cyno CD21. Cells expressing cyno CD21 were generated by transfecting CHO cells with a mammalian expression construct encoding full-length cyno CD21. Stable cell clones were selected on hygromycin-B, and their expression of cyno CD21 confirmed by flow cytometry.
For the Ab15 binding experiment, cells were dissociated with cell dissociation buffer (Sigma) and blocked on ice with PBS+3% bovine serum (BS)+human Fc blocker. Cells were stained on ice for 1 hr with 3-fold serially diluted Ab15 (starting from 50 nM), then washed with cold PBS. Secondary antibody (anti-human IgG-PE, 1:500 dilution, Invitrogen, cat. #H10104) was added on ice for 1 hr. Cells were washed with and resuspended in PBS, and analyzed for Ab15 binding on a BD Fortessa instrument.
For orientation: A flow cytometer gives signals particle by particle.

Assay [2] deals with T1, human CD21 on Raji B cells or primary B …. Nature of the assay: flow cytometry, competition with biotinylated human C3d on Raji B cells. The method, then:
(§1) To measure neutralization of C3d binding to cell-surface CD21 by flow cytometry, human Raji cells and CHO-cyno CD21 cells were used. Cells were dissociated with cell dissociation buffer (Sigma) and blocked on ice with PBS+3% bovine serum albumin (BSA)+human Fc blocker. In a 96-well plate, […] were incubated for 0.5 hr on ice with 3-fold serially diluted Ab15 (starting from 100 nM), then with 4.5 ug/ml biotinylated human C3d. SA-BV451 conjugate (BD Bioscience, cat. #563529) was then added at 0.5 ug/ml for 1 hr on ice. Cells were washed again with cold PBS, resuspended in PBS and analyzed for human C3d binding on a BD Fortessa™.

The target in the next assay is T2, cyno CD21 on CHO cells (cynomolgus monkey, UniProt A0A2K5URG6 21-1034).
T2 construct: whole, on cells; also called CHO-cyno CD21 cells; CHO-cynoCD21
T2 sequence: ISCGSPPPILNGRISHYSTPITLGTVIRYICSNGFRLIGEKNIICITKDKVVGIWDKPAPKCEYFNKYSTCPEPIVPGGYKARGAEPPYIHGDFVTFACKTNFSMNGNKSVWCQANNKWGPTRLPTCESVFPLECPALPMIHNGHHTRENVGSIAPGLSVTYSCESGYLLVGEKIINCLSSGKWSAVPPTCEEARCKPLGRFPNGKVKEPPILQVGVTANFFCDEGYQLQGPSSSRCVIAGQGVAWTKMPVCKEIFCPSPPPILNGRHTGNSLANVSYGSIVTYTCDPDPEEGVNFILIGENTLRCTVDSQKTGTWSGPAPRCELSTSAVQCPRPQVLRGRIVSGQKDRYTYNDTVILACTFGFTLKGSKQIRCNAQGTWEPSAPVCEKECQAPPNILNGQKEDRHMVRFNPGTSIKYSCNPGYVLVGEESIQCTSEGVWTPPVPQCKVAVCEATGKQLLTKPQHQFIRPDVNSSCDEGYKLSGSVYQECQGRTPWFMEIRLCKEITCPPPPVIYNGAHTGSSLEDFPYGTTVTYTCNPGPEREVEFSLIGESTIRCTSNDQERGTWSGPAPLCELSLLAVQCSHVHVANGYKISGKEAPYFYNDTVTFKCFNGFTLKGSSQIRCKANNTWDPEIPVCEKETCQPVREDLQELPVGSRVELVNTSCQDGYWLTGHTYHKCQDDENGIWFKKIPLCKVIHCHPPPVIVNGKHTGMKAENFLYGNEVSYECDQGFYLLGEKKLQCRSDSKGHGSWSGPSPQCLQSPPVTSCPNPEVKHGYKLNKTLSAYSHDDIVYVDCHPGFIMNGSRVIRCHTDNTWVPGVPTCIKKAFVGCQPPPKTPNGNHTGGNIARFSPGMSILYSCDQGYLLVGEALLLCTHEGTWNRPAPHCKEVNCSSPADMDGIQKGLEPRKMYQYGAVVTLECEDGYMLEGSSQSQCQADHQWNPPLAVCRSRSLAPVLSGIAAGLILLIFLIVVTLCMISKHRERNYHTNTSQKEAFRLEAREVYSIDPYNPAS
Nature of the assay: flow cytometry, competition with biotinylated human C3d on CHO-cynoCD21 cells. The method, then:
as §1

B1: Ab15 (antibody, human IgG1, kappa, V domains shown)
VH: QVQLVQSGAEVKKPGSSVKVSCKASGGTFSSYAISWVRQAPGQGLEWMGRIIPILGIANYAQKFQGRVTITADKSTSTAYMELSSLRSEDTAVYYCAREDDSSGYYQDWGQGTLVTVSS
VL: EIVMTQSPATLSLSPGESATLSCRAGQSINSHLAWYQQKPGQSPSLLIYDASTRATGVPARFSGSGFGTEFTLTISSLQSEDFAVYFCQQYEYWYTFGQGTKLEIKR
notes: Tb-labeled in the HTRF assay; also called 36C01; SC38-36C01 (IgG1 version)
In general, EC50 refers to the midpoint of the concentration-response curve. The IC50 is the concentration that gives 50% inhibition. Read a high IC50 as weaker potency in that assay. In assay [1], B1 showed a half-maximal effective concentration (EC50) of 1.38 nM. Also, the IC50 in assay [2] worked out at 1.17 nM; with cyno CD21 on CHO cells, 0.24 nM.
